Reference: patent publication US20260226147A1 (ATRECA, published 2026)

T1: NANP6 peptide (NANPNANPNANPNANPNANPNANP) (Plasmodium falciparum, N-terminal biotin-aminohexanoic acid tag; unmodified C-terminus)
T1 construct: Synthetic peptide (CPC scientific); also called (NANPx6) peptide; long, major repeat peptide
T1 peptide: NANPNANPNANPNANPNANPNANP

T2: NVDP3NANP2 peptide (NVDPNANPNVDPNANPNVDP) (Plasmodium falciparum, acetylated at N-terminus; amidated at C-terminus)
T2 construct: Synthetic peptide; also called long, minor repeat peptide
T2 peptide: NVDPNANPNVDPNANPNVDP


What was measured:
[1] = molecular target: T3, recombinant CSP (Plasmodium falciparum circumsporozoite protein, 3D7) (Plasmodium falciparum, UniProt Q7K740 19-374); assay: SPR (Carterra LSA), IgG captured, CSP analyte
T3 construct: also called CSP (3D7)
T3 sequence (Q7K740 19-374 limits assumed): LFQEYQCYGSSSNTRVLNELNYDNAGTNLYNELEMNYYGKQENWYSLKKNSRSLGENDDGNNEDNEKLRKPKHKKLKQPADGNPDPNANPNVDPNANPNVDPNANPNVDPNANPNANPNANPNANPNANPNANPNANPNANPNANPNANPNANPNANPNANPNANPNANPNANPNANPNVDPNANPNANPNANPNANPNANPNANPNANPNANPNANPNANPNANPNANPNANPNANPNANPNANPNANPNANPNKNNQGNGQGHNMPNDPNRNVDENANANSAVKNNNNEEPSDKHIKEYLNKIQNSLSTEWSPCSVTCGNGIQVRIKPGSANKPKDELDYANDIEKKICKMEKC

[2] = molecular target: T1, NANP6 peptide (NANPNANPNANPNANPNANPNANP); assay: SPR (Carterra LSA, 25 C), antibody immobilised on the chip, peptide as analyte
[3] = molecular target: T2, NVDP3NANP2 peptide …; assay: as above

| Binder | Kd [1] [nM] | binding result [2] | binding result [3] |
| --- | --- | --- | --- |
| AB-001558 (antibody, V domains shown) VH: QVQLVESGGGVVQPGRSLRLSCAASGFTFSSYGMHWVRQAPGKGLEWVAVIWYDGNNKYYVDSVKGRFTISRDNSKNTLYLQMNSLRAEDTAVYYCARDHDADYVEKWGAFDLWGQGTMVTVSS VL: EIVMTQSPATLSVSPGERATLSCRASQSVSSNLAWYQQKPGQAPRLLIYGASARATGIPARFSGSGSGTEFTLTISSLQSEDFAVYYCQQYNNGRTFGQGTKVEIT | 1.05 | – | – |
| AB-007163 (antibody, V domains shown) VH: QVHLLESGGTVVQPGGSLRLSCEASGFIFSDYGMHWVRQVPGKGLEWVAVIWFDGSQKYYGDSVKGRFTVSRDNSKNTLYLQMNTLRADDTGIYYCATDIRGAYKVTDGGFDQWGHGTLVTVSP VL: QSVLTQPPSISGAPGQRVTISCTGAGSNIGAGYEVHWYQQLPGTAPKLLMFADNNRPSGVPDRFSGSKSGTSASLAITGLQAEDEADYYCQSYDISLKNFVFGTGTTVTVL | – | binds | binds |
